Measured values from the supplement of paper PMC10724198.
± gives the standard deviation of the averaged measurements.

Test system: Saccharomyces cerevisiae
Test: protein stability index of tFT-peptide fusion (C-terminal peptide) (PSI (0-1 scale)); higher = more stable (slower turnover)
Details: genetic background: wild type; temperature: 30 C
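Note: PSI is a weighted mean of sequencing reads over stability bins, variants kept only with over 10 reads, mCherry proximal and sfGFP distal, peptide attached via GGGS linker.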

Sequence	protein stability index
PPPLPPPHPSPI	0.669 ± 0.019
PPPLPPPSLLPT	0.762 ± 0.043
PPPLPSIPPFVL	0.708 ± 0.094
PPPLPSPAPPPP	0.709 ± 0.053
PPPLSPPRPPRH	0.701 ± 0.022
PPPNSTPNPLST	0.7394 ± 0.0058
PPPPAHSYHPPS	0.714 ± 0.16
PPPPGPSSPHPP	0.707 ± 0.041
PPPPHCPQPPPP	0.72 ± 0.018
PPPPHDLLTPPS	0.736 ± 0.0079
PPPPLAPSPPPS	0.6542 ± 0.0025
PPPPLPLPPSLP	0.5979 ± 0.0054
PPPPLPPALFPP	0.589 ± 0.013
PPPPLPPFPPHP	0.659 ± 0.017
PPPPLPPSSPPL	0.751 ± 0.027
PPPPPACRLCFF	0.634 ± 0.1
PPPPPLPQAPPT	0.687 ± 0.014
PPPPPPLPPLSP	0.717 ± 0.035
PPPPPPLPPSAA	0.711 ± 0.0091
PPPPPPNLASHP	0.707 ± 0.0031
PPPPPPPCFFPP	0.715 ± 0.048
PPPPPPPHPTPT	0.676 ± 0.039
PPPPPPPLPPPP	0.667 ± 0.015
PPPPPPPPAPPY	0.725 ± 0.017
PPPPPPPPAVVA	0.569 ± 0.028
PPPPPPPPPHSP	0.769 ± 0.01

Sequence	protein stability index
PPPPPPPPPLAF	0.653 ± 0.12
PPPPPPPPRPPS	0.651 ± 0.069
PPPPPPPPTPAS	0.654 ± 0.023
PPPPPPPPVPLL	0.708 ± 0.017
PPPPPPPVLSSI	0.647 ± 0.076
PPPPPPSAPPPS	0.669 ± 0.026
PPPPPPSISPSP	0.5389 ± 0.0053
PPPPPPSPHPPS	0.726 ± 0.024
PPPPPQLPQCPP	0.711 ± 0.042
PPPPPRPPAGFL	0.924 ± 0.095
PPPPPRPPPARL	0.672 ± 0.06
PPPPPRPSPPHP	0.833 ± 0.022
PPPPPSSPPLPP	0.64 ± 0.083
PPPPPSVTRTQP	0.649 ± 0.043
PPPPPTSPPPHP	0.706 ± 0.032
PPPPRLSLHSPP	0.713 ± 0.0085
PPPPRPACLPSN	0.727 ± 0.018
PPPPRPSSDRFR	0.684 ± 0.016
PPPPSLPHTIGP	0.643 ± 0.042
PPPPSLPPSFPS	0.67 ± 0.072
PPPPSPPPIPSP	0.706 ± 0.04
PPPPSRPPPAPR	0.701 ± 0.053
PPPPSRPPPPRL	0.789 ± 0.021
PPPPTLSPPRSL	0.718 ± 0.034
PPPPTPRPPSSL	0.728 ± 0.061
PPPPVPPPALPL	0.644 ± 0.045

Sequence	protein stability index
PPPPVPPPPSSL	0.749 ± 0.037
PPPQFPRPRPTS	0.724 ± 0.014
PPPRFRPLPLRA	0.5935 ± 0.0019
PPPRPPPRPLPP	0.669 ± 0.024
PPPRPPSPPPPP	0.672 ± 0.051
PPPRPPSPPPPS	0.699 ± 0.035
PPPRPRPSSRSI	0.71 ± 0.016
PPPRTTPYPSSL	0.714 ± 0.055
PPPRVHPCHPPC	0.678 ± 0.031
PPPSPGSSAPPP	0.676 ± 0.037
PPPSPLANPPSP	0.728 ± 0.092
PPPSPPPQPHRP	0.665 ± 0.018
PPPSQPTSPPPP	0.732 ± 0.067
PPPSRLSPVICP	0.612 ± 0.01
PPPSRSLPPRPQ	0.727 ± 0.027
PPPSRSLPPRRL	0.661 ± 0.03
PPPSSIGRTPIS	0.693 ± 0.033
PPPSSPPPPAPL	0.694 ± 0.035
PPPTHQLAVLSP	0.6413 ± 0.0062
PPPTPPPAPSHR	0.677 ± 0.1
PPPTSPPHPPSP	0.701 ± 0.083
PPPVFPPLPVLS	0.598 ± 0.007
PPQFIYYPLPLF	0.616 ± 0.063
PPQGMTGGRGDR	0.697 ± 0.077
PPQTHPLPCPSP	0.745 ± 0.018
PPRAPFVSPFGY	0.723 ± 0.012

Sequence	protein stability index
PPRAPSPSPLPP	0.893 ± 0.1
PPRCPLPPLSPP	0.701 ± 0.11
PPRFFARPPFRT	0.6309 ± 0.0059
PPRGAPWTRPPQ	0.691 ± 0.015
PPRGFDPSFQTV	0.7 ± 0.18
PPRHPPPSPLVA	0.668 ± 0.011
PPRHTPFSLPPF	0.651 ± 0.074
PPRLNKAPCLDP	0.705 ± 0.036
PPRPFTLLPPPP	0.6424 ± 0.0062
PPRPPAPHLSGI	0.681 ± 0.039
PPRPPPAPPPLP	0.642 ± 0.0021
PPRPPPFPPLLP	0.679 ± 0.058
PPRPPPHPPLPP	0.678 ± 0.0057
PPRPPPLPPSRP	0.627 ± 0.032
PPRPPPSPPSFP	0.688 ± 0.014
PPRPPRFFLLPP	0.6586 ± 0.0061
PPRPQPPGSSFS	0.741 ± 0.012
PPRPRPRPLSPP	0.65 ± 0.039
PPRPSLIPPLPS	0.61 ± 0.016
PPRPSTPPRHSL	0.695 ± 0.058
PPRQPACAFLPS	0.653 ± 0.09
PPRSPPPLSPTP	0.583 ± 0.038
PPRSPPPPPTLP	0.6578 ± 0.001
